# From US20240116985A1 (published 2024)
# Starred links: 1 amine or outer side, 2 acyl side, 3 side chain; linkers in the order of their positions; H or OH if unused. Positions of bridges follow the written chain, without caps; N, C: chain ends. Non-standard residues stand in square brackets, D forms with d. Primed or numbered codes have the meaning given here. B5(15) = 2-amino-2-(pent-4-en-1-yl)hept-6-enoic acid (2,2-bis(4-pentenyl)glycine), stitching residue bearing two staples, C=CCCCC(CCCC=C)(N[*:1])C(=O)[*:2]; B5(23) = 2-amino-2-(pent-4-en-1-yl)hept-6-enoic acid (2,2-bis(4-pentenyl)glycine), stitching residue, C=CCCCC(CCCC=C)(N[*:1])C(=O)[*:2]; B5(4) = 2,2-bis(4-pentenyl)glycine = 2-amino-2-(pent-4-en-1-yl)hept-6-enoic acid (stitching residue), C=CCCCC(CCCC=C)(N[*:1])C(=O)[*:2]; Phe(3-F) = N[C@@H](Cc1cccc(F)c1)C(=O)O; Phe(4-F) = N[C@@H](Cc1ccc(F)cc1)C(=O)O; Bta = N[C@@H](Cc1csc2ccccc12)C(=O)O; αAllylPro = C=CC[C@@]1(C(=O)O)CCCN1; S8 = C=CCCCCCC[C@](C)(N)C(=O)O; hSer = N[C@@H](CCO)C(=O)O
# T1: full-length beta-Catenin (Uniprot ID P35222) (Homo sapiens (Human), UniProt P35222 1-781)
# T1 construct: The assay protocols call it full-length; also called B-Catenin; bCat
# T1 sequence: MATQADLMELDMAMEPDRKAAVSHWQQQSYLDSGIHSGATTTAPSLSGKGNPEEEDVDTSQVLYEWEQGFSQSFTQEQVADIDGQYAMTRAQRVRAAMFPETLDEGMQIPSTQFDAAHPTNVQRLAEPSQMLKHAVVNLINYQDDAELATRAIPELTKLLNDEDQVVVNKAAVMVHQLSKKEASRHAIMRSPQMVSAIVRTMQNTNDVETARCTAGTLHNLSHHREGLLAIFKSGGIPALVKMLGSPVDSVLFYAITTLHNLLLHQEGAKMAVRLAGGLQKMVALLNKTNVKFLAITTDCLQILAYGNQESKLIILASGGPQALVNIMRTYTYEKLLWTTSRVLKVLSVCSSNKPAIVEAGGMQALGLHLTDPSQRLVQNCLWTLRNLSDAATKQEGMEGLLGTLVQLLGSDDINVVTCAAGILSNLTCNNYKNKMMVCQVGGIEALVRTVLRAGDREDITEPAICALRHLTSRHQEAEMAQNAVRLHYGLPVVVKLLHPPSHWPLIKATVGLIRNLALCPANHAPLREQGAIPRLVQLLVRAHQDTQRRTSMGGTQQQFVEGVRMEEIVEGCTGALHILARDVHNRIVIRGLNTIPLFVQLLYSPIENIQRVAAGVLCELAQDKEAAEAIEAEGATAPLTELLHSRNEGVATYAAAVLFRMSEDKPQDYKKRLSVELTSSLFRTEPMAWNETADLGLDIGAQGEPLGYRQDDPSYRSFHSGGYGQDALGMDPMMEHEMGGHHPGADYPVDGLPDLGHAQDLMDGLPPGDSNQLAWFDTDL
# T2: B-cat-Halo (beta-catenin HaloTag NanoBRET construct expressed in HEK293 cells) (UniProt P35222 1-781)
# T2 sequence (looked up): T1 sequence
# T3: full-length beta-Catenin (Uniprot ID P35222) (Homo sapiens (Human), UniProt P35222 2-781)
# T3 construct: full-length; also called bCat; B-Catenin
# T3 sequence: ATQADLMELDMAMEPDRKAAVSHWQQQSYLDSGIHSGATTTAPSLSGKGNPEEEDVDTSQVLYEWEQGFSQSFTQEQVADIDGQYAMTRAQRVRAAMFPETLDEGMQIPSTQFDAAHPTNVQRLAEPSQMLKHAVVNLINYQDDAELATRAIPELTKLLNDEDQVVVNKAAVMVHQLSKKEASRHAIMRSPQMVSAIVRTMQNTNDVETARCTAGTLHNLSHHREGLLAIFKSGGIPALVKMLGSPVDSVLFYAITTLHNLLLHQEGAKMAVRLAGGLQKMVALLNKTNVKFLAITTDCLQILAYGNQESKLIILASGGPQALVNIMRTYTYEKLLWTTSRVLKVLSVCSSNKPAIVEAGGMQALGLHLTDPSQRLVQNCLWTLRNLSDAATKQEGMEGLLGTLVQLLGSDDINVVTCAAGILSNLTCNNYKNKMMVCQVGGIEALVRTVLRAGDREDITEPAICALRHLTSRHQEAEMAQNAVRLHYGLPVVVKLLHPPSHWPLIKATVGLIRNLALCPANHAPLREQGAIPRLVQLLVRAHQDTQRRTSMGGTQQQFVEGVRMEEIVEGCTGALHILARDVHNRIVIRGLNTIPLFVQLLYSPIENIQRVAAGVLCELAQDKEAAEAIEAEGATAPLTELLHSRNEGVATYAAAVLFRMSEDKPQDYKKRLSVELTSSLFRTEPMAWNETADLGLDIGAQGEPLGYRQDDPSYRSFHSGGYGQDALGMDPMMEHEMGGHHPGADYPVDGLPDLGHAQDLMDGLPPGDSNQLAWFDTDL
# B1: I-261 (peptide)
# peptide: Ac-[αAllylPro]DA[B5(4)]DDAAFV[S8][Phe(4-F)]WQ-NH2
# modifications: staple 1-4, 4-11
# notes: Stapled (stitched) peptide; also called Ac-PL3-Asp-Ala-B5-Asp-Asp-Ala-Ala-Phe-Val-S8-4FF-Trp-Gln-NH2
# B2: I-260 (peptide)
# peptide: Ac-[αAllylPro]DA[B5(4)]DDAAFV[S8][Phe(3-F)]WQ-NH2
# modifications: staple 1-4, 4-11
# notes: Stapled (stitched) peptide; also called Ac-PL3-Asp-Ala-B5-Asp-Asp-Ala-Ala-Phe-Val-S8-3FF-Trp-Gln-NH2
# B3: I-286 (peptide)
# peptide: XDAXDDAAFAXFWA
# modifications: not fully specified; N-terminal Ac; PL3 at 1; B5 at 4; S8 at 11; C-terminal NH2; staples PL3(1)-B5(4) and B5(4)-S8(11) by olefin metathesis
# notes: Stapled (stitched) peptide; also called Ac-PL3-Asp-Ala-B5-Asp-Asp-Ala-Ala-Phe-Ala-S8-Phe-Trp-Ala-NH2
# B4: I-285 (peptide)
# peptide: XDAXDDAAFVXHWQ
# modifications: not fully specified; N-terminal Ac; PL3 at 1; B5 at 4; S8 at 11; C-terminal NH2; staples PL3(1)-B5(4) and B5(4)-S8(11) by olefin metathesis
# notes: Stapled (stitched) peptide; also called Ac-PL3-Asp-Ala-B5-Asp-Asp-Ala-Ala-Phe-Val-S8-His-Trp-Gln-NH2
# B5: I-263 (peptide)
# peptide: XDAXDDAAFVXFWQ
# modifications: not fully specified; N-terminal Ac; PL3 at 1; B5 at 4; S8 at 11; 34FF at 12; C-terminal NH2; staples PL3(1)-B5(4) and B5(4)-S8(11) by olefin metathesis
# notes: Stapled (stitched) peptide; also called Ac-PL3-Asp-Ala-B5-Asp-Asp-Ala-Ala-Phe-Val-S8-34FF-Trp-Gln-NH2
# B6: I-262 (peptide)
# peptide: XDAXDDAAFVXFWQ
# modifications: not fully specified; N-terminal Ac; PL3 at 1; B5 at 4; S8 at 11; 34FF at 12; C-terminal NH2; staples PL3(1)-B5(4) and B5(4)-S8(11) by olefin metathesis
# notes: as for B5
# B7: I-1532 (peptide)
# peptide: XDNXDEAAFQXFXQ
# modifications: not fully specified; N-terminal Ac; PL3 at 1, B5 at 4, S8 at 11 (staples PL3-B5 and B5-S8 by olefin metathesis); BztA at 13; C-terminal NH2
# notes: Stapled peptide composition; Same description as I-1531; separate, later eluting HPLC peak (staple isomer); also called Ac-PL3-Asp-Asn-B5-Asp-Glu-Ala-Ala-Phe-Gln-S8-Phe-BztA-Gln-NH2
# B8: I-1550 (peptide)
# peptide: Ac-[αAllylPro]DF[B5(23)]DEAAFL[S8]F[Bta]Q-NH2
# modifications: staple 1-4, 4-11
# notes: Stapled peptide composition; also called Ac-PL3-Asp-Phe-B5-Asp-Glu-Ala-Ala-Phe-Leu-S8-Phe-BztA-Gln-NH2
# B9: I-1544 (peptide)
# peptide: XDSXDEAAFQXFXQ
# modifications: not fully specified; N-terminal Ac; PL3 at 1, B5 at 4, S8 at 11 (staples PL3-B5 and B5-S8 by olefin metathesis); Hse at 3; BztA at 13; C-terminal NH2
# notes: Stapled peptide composition; earlier eluting HPLC peak (staple isomer); also called Ac-PL3-Asp-Hse-B5-Asp-Glu-Ala-Ala-Phe-Gln-S8-Phe-BztA-Gln-NH2
# B10: I-1534 (peptide)
# peptide: Ac-[αAllylPro]DN[B5(15)]DEAAF[hSer][S8]F[Bta]Q-NH2
# modifications: staple 1-4, 4-11; not fully specified; printed as Ac-PL3-Asp-Asn-B5-Asp-Glu-Ala-Ala-Phe-Hse-S8-Phe-BztA-Gln-NH2
# notes: Stapled peptide composition; Same description as I-1535; earlier eluting HPLC peak (staple isomer); also called Ac-PL3-Asp-Asn-B5-Asp-Glu-Ala-Ala-Phe-Hse-S8-Phe-BztA-Gln-NH2
# B11: I-1547 (peptide)
# peptide: Ac-[αAllylPro]D[hSer][B5(15)]DEAAF[hSer][S8]F[Bta]Q-NH2
# modifications: staple 1-4, 4-11; not fully specified; printed as Ac-PL3-Asp-Hse-B5-Asp-Glu-Ala-Ala-Phe-Hse-S8-Phe-BztA-Gln-NH2
# notes: Stapled peptide composition; Same description as I-1548; earlier eluting HPLC peak (staple isomer); also called Ac-PL3-Asp-Hse-B5-Asp-Glu-Ala-Ala-Phe-Hse-S8-Phe-BztA-Gln-NH2
# B12: I-1552 (peptide)
# peptide: Ac-[αAllylPro]DK[B5(23)]DEAAFQ[S8]F[Bta]Q-NH2
# modifications: staple 1-4, 4-11
# notes: Stapled peptide composition; also called Ac-PL3-Asp-Lys-B5-Asp-Glu-Ala-Ala-Phe-Gln-S8-Phe-BztA-Gln-NH2
# B13: I-1551 (peptide)
# peptide: Ac-[αAllylPro]DF[B5(23)]DEAAF[hSer][S8]F[Bta]Q-NH2
# modifications: staple 1-4, 4-11
# notes: Stapled peptide composition; also called Ac-PL3-Asp-Phe-B5-Asp-Glu-Ala-Ala-Phe-Hse-S8-Phe-BztA-Gln-NH2
# B14: I-1535 (peptide)
# peptide: Ac-[αAllylPro]DN[B5(15)]DEAAF[hSer][S8]F[Bta]Q-NH2
# modifications: staple 1-4, 4-11; not fully specified; printed as Ac-PL3-Asp-Asn-B5-Asp-Glu-Ala-Ala-Phe-Hse-S8-Phe-BztA-Gln-NH2
# notes: Stapled peptide composition; later eluting HPLC peak (staple isomer); also called Ac-PL3-Asp-Asn-B5-Asp-Glu-Ala-Ala-Phe-Hse-S8-Phe-BztA-Gln-NH2
# Target: T1, full-length beta-Catenin (Uniprot ID …)
# Experiment: fluorescence polarization competition; full-length beta-catenin with 5FAM-labelled TCF4 10-53 peptide as competitor
# Experimental: (§1) The plate was incubated protected from light for 60 minutes at 20° C. prior to read. Reads were performed on a CLARIOstar plate reader (BMG Labtech) in duplicate, and data were fitted to a 1:1 binding model with hill slope using an in-house script. All provided concentrations are final concentrations.
row,EC50,Binder
1,5 µM,B1
2,5 µM,B2
3,4.48 µM,B3
4,5 µM,B4
5,5 µM,B5
6,5 µM,B6

# Target: T1, full-length beta-Catenin (Uniprot ID …)
# Experiment: AlphaScreen competition; full-length beta-catenin with biotin-labelled TCF4 10-53 peptide as competitor
# Experimental: as §1, with “Equal volume of the titrated peptide was added to the” for “The”, “and” for “was”, “incubated for 15 minutes at 20° C. Then 4 uL of donor and 4 uL acceptor beads at 10 ug/mL were added to the plate, for a 16 uL reaction pool and” for “incubated”
row,EC50,Binder
1,0.347 µM,B1
2,0.683 µM,B2
3,0.45 µM,B3
4,0.246 µM,B4
5,0.864 µM,B5
6,0.967 µM,B6

# Target: T2, B-cat-Halo (beta-catenin HaloTag …)
# Experiment: cell-based or functional assay
row,NanoBRET Abs IC50,Binder
1,> 20 µM,B7
2,15.3 µM,B8
3,> 20 µM,B9
4,> 20 µM,B10
5,> 20 µM,B11
6,> 20 µM,B12
7,19.8 µM,B13
8,> 20 µM,B14

# Target: T3, full-length beta-Catenin (Uniprot ID …)
# Experiment: fluorescence polarization competition; displaces 5FAM-TCF4(10-53) from full-length beta-catenin
# Experimental: as §1
row,IC50,Binder
1,0.049 µM,B7
2,0.022 µM,B8
3,0.061 µM,B9
4,0.181 µM,B10
5,0.068 µM,B11
6,0.056 µM,B12
7,0.016 µM,B13
8,0.072 µM,B14
